For the data set the following is noted: pH 5, DSC, Unknown, reversible: yes, whole UniProt chain shown; for denaturant midpoint (higher = more stable): 25 °C, GdnHCl; for Tm / heat capacity change of unfolding / unfolding enthalpy (calorimetric): Thermal.
Setting [1] is: Pseudomonas aeruginosa (strain ATCC 15692 / DSM 22644 / CIP 104116 / JCM 14847 / LMG 12228 / 1C / PRS 101 / PAO1).
Where [2] appears, read: Pseudomonas aeruginosa (strain ATCC 15692 / DSM 22644 / CIP 104116 / JCM 14847 / LMG 12228 / 1C / PRS 101 / PAO1), 47.3 °C.
Setting [3] is: Hydrogenobacter thermophilus (strain DSM 6534 / IAM 12695 / TK-6).

In general, Tm refers to the temperature at the midpoint of the melting transition.

B1: Cytochrome c-551 wild type, P00099 (protein)
chain: MKPYALLSLLATGTLLAQGAWAEDPEVLFKNKGCVACHAIDTKMVGPAYKDVAAKFAGQAGAEAELAQRIKNGSQGVWGPIPMPPNAVSDDEAQTLAKWVLSQK
In the case of B1, under setting [1], the “denaturant midpoint (higher = more stable)” value is 2.16 M, the melting temperature (Tm) is 47.3 °C, the “heat capacity change of unfolding” value was determined as 0.72 kcal/mol/K and the “unfolding enthalpy (calorimetric)” value turned out to be 37.7 kcal/mol. Moreover, under setting [2], the Tm worked out at 47.3 °C and the “heat capacity change of unfolding” value was 1.07 kcal/mol/K.

B2: Cytochrome c-552 wild type, P15452 (protein)
chain: MKKFLLVAVVGLAGITFANEQLAKQKGCMACHDLKAKKVGPAYADVAKKYAGRKDAVDYLAGKIKKGGSGVWGSVPMPPQNVTDAEAKQLAQWILSIK
Regarding B2, under setting [3], the “denaturant midpoint (higher = more stable)” value was determined as 4.47 M, the Tm was found to be 87.5 °C, the “heat capacity change of unfolding” value was determined as 0.9 kcal/mol/K and the “unfolding enthalpy (calorimetric)” value amounted to 36.7 kcal/mol.

For the origin of these results see FireProtDB (doi:10.1074/jbc.m005861200).
